The results in this text go back to the supplement of paper PMC9428881.

± gives the standard error.

The series can be described thus: background-corrected fluorescence of 3'-dye-labeled ssDNA relative to brightest sequence (3'-GCGCG) (fraction); higher = brighter dye fluorescence (less quenching). The essentials:
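Each of 1024 permuted pentamers was synthesized as single-stranded DNA on glass slides by light-directed phosphoramidite chemistry, with a 3' Cy3 or Cy5 dye alongside. Arrays were scanned at 532 or 635 nm before and after overnight deprotection with ethylenediamine/ethanol. Values average 10 features per array across at least 3 syntheses. The fluorescence readout, with unlabeled-oligo background removed, is given relative to the brightest sequence.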

For the sequence “TTTTTTCATGCTGATGAGCATTTTTTTTTTTTTTTGACCT [TCCAG]”, the background-corrected fluorescence runs as follows: (dye: Cy3 (3' terminal)) 0.453 ± 0.026; (dye: Cy5 (3' terminal)) 0.34 ± 0.026.
On the same counts, the results for “TTTTTTCATGCTGATGATCATTTTTTTTTTTTTTTGACCG [GCCAG]” are 0.524 ± 0.032 and 0.428 ± 0.043.
As for “TTTTTTCATGCTGATGATGATTTTTTTTTTTTTTTGACCC [CCCAG]”, the background-corrected fluorescence reads like this: (dye: Cy3 (3' terminal)) 0.387 ± 0.0053; (dye: Cy5 (3' terminal)) 0.282 ± 0.022.
On to “TTTTTTCATGCTGATGATGCTTTTTTTTTTTTTTTGACCA [ACCAG]”, for which the background-corrected fluorescence reads like this: (dye: Cy3 (3' terminal)) 0.499 ± 0.022; (dye: Cy5 (3' terminal)) 0.394 ± 0.024.
For the sequence “TTTTTTCATGCTGATGCGCATTTTTTTTTTTTTTTGACAT [TACAG]”, the background-corrected fluorescence (dye: Cy3 (3' terminal)) was 0.536 ± 0.019 and the background-corrected fluorescence (dye: Cy5 (3' terminal)) came to 0.388 ± 0.025.
In the case of “TTTTTTCATGCTGATGCTCATTTTTTTTTTTTTTTGACAG”, the background-corrected fluorescence reads like this: (dye: Cy3 (3' terminal)) 0.547 ± 0.023; (dye: Cy5 (3' terminal)) 0.423 ± 0.036.
In turn, “TTTTTTCATGCTGATGCTGATTTTTTTTTTTTTTTGACAC [CACAG]” came in with a background-corrected fluorescence (dye: Cy3 (3' terminal)) of 0.42 ± 0.0058 and a background-corrected fluorescence (dye: Cy5 (3' terminal)) of 0.321 ± 0.044.
The matching figures for “TTTTTTCATGCTGATGCTGCTTTTTTTTTTTTTTTGACAA [AACAG]”: 0.537 ± 0.032 and 0.415 ± 0.022.
On the same counts, the results for “TTTTTTCATGCTGCGCAGCATTTTTTTTTTTTTTTGAATT [TTAAG]” are 0.5465 ± 0.0052 and 0.382 ± 0.03.
Turning to “TTTTTTCATGCTGCGCATCATTTTTTTTTTTTTTTGAATG [GTAAG]”, the background-corrected fluorescence runs as follows: (dye: Cy3 (3' terminal)) 0.489 ± 0.022; (dye: Cy5 (3' terminal)) 0.367 ± 0.029.
For the sequence “TTTTTTCATGCTGCGCATGATTTTTTTTTTTTTTTGAATC [CTAAG]”, the background-corrected fluorescence turned out to be 0.433 ± 0.031 (dye: Cy3 (3' terminal)) and 0.311 ± 0.025 (dye: Cy5 (3' terminal)).
On the same counts, the results for “TTTTTTCATGCTGCGCATGCTTTTTTTTTTTTTTTGAATA [ATAAG]” are 0.553 ± 0.025 and 0.42 ± 0.053.
“TTTTTTCATGCTGCTCAGCATTTTTTTTTTTTTTTGAAGT” showed a background-corrected fluorescence (dye: Cy3 (3' terminal)) of 0.661 ± 0.012 and a background-corrected fluorescence (dye: Cy5 (3' terminal)) of 0.529 ± 0.056.
For “TTTTTTCATGCTGCTCATCATTTTTTTTTTTTTTTGAAGG [GGAAG]”, the background-corrected fluorescence was found to be 0.607 ± 0.026 (dye: Cy3 (3' terminal)) and 0.512 ± 0.025 (dye: Cy5 (3' terminal)).
Take “TTTTTTCATGCTGCTCATGATTTTTTTTTTTTTTTGAAGC [CGAAG]”: the background-corrected fluorescence was 0.547 ± 0.024 (dye: Cy3 (3' terminal)) and 0.397 ± 0.027 (dye: Cy5 (3' terminal)).
Regarding “TTTTTTCATGCTGCTCATGCTTTTTTTTTTTTTTTGAAGA [AGAAG]”, the background-corrected fluorescence reads like this: (dye: Cy3 (3' terminal)) 0.6356 ± 0.0052; (dye: Cy5 (3' terminal)) 0.582 ± 0.029.
“TTTTTTCATGCTGCTGAGCATTTTTTTTTTTTTTTGAACT [TCAAG]”: the background-corrected fluorescence (dye: Cy3 (3' terminal)) was 0.5 ± 0.016 and the background-corrected fluorescence (dye: Cy5 (3' terminal)) is 0.36 ± 0.025.
With “TTTTTTCATGCTGCTGATCATTTTTTTTTTTTTTTGAACG [GCAAG]”, the background-corrected fluorescence is, setting by setting: (dye: Cy3 (3' terminal)) 0.541 ± 0.028; (dye: Cy5 (3' terminal)) 0.404 ± 0.023.
With “TTTTTTCATGCTGCTGATGATTTTTTTTTTTTTTTGAACC [CCAAG]”, the background-corrected fluorescence runs as follows: (dye: Cy3 (3' terminal)) 0.41 ± 0.033; (dye: Cy5 (3' terminal)) 0.288 ± 0.027.
On to “TTTTTTCATGCTGCTGATGCTTTTTTTTTTTTTTTGAACA [ACAAG]”, for which the background-corrected fluorescence turned out to be 0.505 ± 0.013 (dye: Cy3 (3' terminal)) and 0.394 ± 0.024 (dye: Cy5 (3' terminal)).
Turning to “TTTTTTCATGCTGCTGCGCATTTTTTTTTTTTTTTGAAAT [TAAAG]”, the background-corrected fluorescence by setting is: (dye: Cy3 (3' terminal)) 0.574 ± 0.015; (dye: Cy5 (3' terminal)) 0.419 ± 0.025.
The matching figures for “TTTTTTCATGCTGCTGCTCATTTTTTTTTTTTTTTGAAAG”: 0.574 ± 0.028 and 0.431 ± 0.056.
On to “TTTTTTCATGCTGCTGCTGATTTTTTTTTTTTTTTGAAAC [CAAAG]”, for which the background-corrected fluorescence came out at 0.43 ± 0.023 (dye: Cy3 (3' terminal)) and 0.333 ± 0.045 (dye: Cy5 (3' terminal)).
As for “TTTTTTCATGCTGCTGCTGCTTTTTTTTTTTTTTTGAAAA [AAAAG]”, the background-corrected fluorescence was 0.63 ± 0.012 (dye: Cy3 (3' terminal)) and 0.491 ± 0.052 (dye: Cy5 (3' terminal)).
